Assay: soluble on expression in E. coli; label from the status in PepcDB or PDB records

Question: Which “soluble on expression in E. coli” value does the source give for “MPILTIREVCNINHWGIGYYDVDDSGEIIVRPNPSQHNQTVSLQKLTEAVQQKHQARLPVLFCFPQILEHRLRDINRAFQTAREECGYKGGYCLVYPIKVNQHRRVIESLMSSGQPHGLEAGSKAELMAVLAHAGNRQTLIVCNGYKDREYIRFALMGEKLGHQVYLVIEKLSEIQMVLEEAEKLGIKPRLGVRARLASQGSGKWQSSGGEKSKFGLSASQVLQLVDILKQKNRLDCLQLLHFHLGSQLGNIRDVATGVHESARFYVELHKLGVNIRCFDVGGGLGVDYEGNRTQSDCSVNYSLNEYAATVVWGISQACLEHGLPHPTIITESGRGITAHHAVLVANVIGVERYKPRRLDAPSPEAPRVLHSMWETWTDISASREKRSLRSWIHEGQFDLADVHNQYNVGLLSLAQRAWAEQLYLNICHEVGELFNEKHRSHRTIIDELQERFADKLYVNFSLFQSLPDAWGIDQLFPVCPITGLNEPIARRAVLLDITCDSDGTIDHYIDGDGIAGTMPMPDYPEEEPPLLGFFMVGAYQEILGNMHNLFGDTATADVVVGEDGQFTVIDYDEGNTVADMLEYVYQDPKELMKRYREQIEHSDLPASQAMSFLKELEAGLNGYTYLEDE” here?
Answer: not soluble

Question: For “MATSFYTGGGEDGDGFNPRVHARIAEREGFQLASGSEDPRTLFVANLDPAITDEFLATLFNQIGAVMKAKIIFEGLNDPYAFVEFSDHNQATLALQSHNGRELLEKEMHVTWAFEPREPGENRSKPETSRHFHVFVGDLCSEIDSTKLREAFVKFGEVSEAKIIRDNNTNKGKGYGFVSYPRREDAERAIDEMNGAWLGRRTIRTNWATRKPDEDGERGGDRGDRRGGGGGGRDRYHNQSEKTYDEIFNQAAADNTSVYVGNIANLGEDEIRRAFDRFGPINEVRTFKIQGYAFVKFETKESAARAIVQMNNADIGGQIVRCSWGKSGDSGKPSERGSGGGGGSGNYGYGYGNSGGGGGSGGPGNSQFSNFNQRPPPSGNGGSGGGSGGQNNQYWQYYSQYYNNPHLMQQWNNYWQKDGPPPPPAAAASSTGGN”, which “soluble on expression in E. coli” value is on record?
Answer: not soluble

Question: Which “soluble on expression in E. coli” value does the source give for “GPGSMFYKIVLQRTVNVKPADLCNTLNRSLLTFLREAVEGKPLPSPDSIASIALDYVTASKSSAVVIAVLDILNAETLQGKVLDDGSVSFRLTYEAMVLKLHRGEVLDLLVSDVDETGFWASVYGVNKLFVNRNQMGEDMKTGKSEWSFEAETAAWVSNDDRRSIKKDTMVRLRVIAETPQSERGMAVGTIGAPFLGPRVGSY” here?
Answer: not soluble

Question: For “MCNDTATPQLEELVTTVANQLMTVDAATSAEVSQRVLAYLVEQLGVDVSFLRHNDRDRRATRLVAEWPPRLNIPDPDPLRLIYFADADPVFALCEHAKEPLVFRPEPATEDYQRLIEEARGVPVTSAAAVPLVSGEITTGLLGFIKFGDRKWLEHHHHHH”, which “soluble on expression in E. coli” value is on record?
Answer: not soluble

Question: With “MLPSKEELLALLSKECELYASIPDSEQQKKRNKKHFINGLMTACRVVGISFEELNTIIEQMPKKPIFKDLDEQLSVPTYVRNRVDIKL” as the sequence, how does the “soluble on expression in E. coli” value read?
Answer: not soluble

Question: With “MPPLPEKVQSHRATPIQSSGVSALPLVEYHAPGSDRLAIMISGDGGWRTLDRNLSKELQRRGISVVGWNSLRYFWKLRTPEQLGDDLSRVIADYQRRWGAHQVILIGYSFGADVMPFAYAHLMPTQRNGVDFISLLALGRKADFKARIFGWLGWGEHGTRDVLTALGALDLHRVQCIYGQNDKDAVCPELRERIFDVVMRPGGHHFDGDTVKLADAILQGWQRRIELREPRNADSPR” as the sequence, how does the “soluble on expression in E. coli” value read?
Answer: not soluble

Question: With “SRRRRSGTEPEKIEPGEGASRSRRDMLKDGGQQGLGTGARDPDKATRFRMEELRLTSTTFALTGDSAHNQAMVHWSGHNSSVILILTKLYDYNLGSITESSLWRSTDYGTTYEKLNDKVGLKTILSYLYVCPTNKRKIMLLTDPEIESSLLISSDEGATYQKYRLNFYIQSLLFHPKQEDWILAYSQDQKLYSSAEFGRRWQLIQESVVPNRFYWSVMGSSKEPDLVHLEARTVDGHSIYLTCRMQNCTEANRNKPFPGYIDPDSLIVQDDYVFVQLTSGGRPHYYVSYRRSPFAQMKLPKYALPKDMHVISTDENQVFAAVQEWNQNDTYNLYISDTRGVYFTLALENVQSSRGPEGNVMIDLYEVAGIKGMFLANKKIDNQVKTFITYNKGRDWRLLQAPDADLRGDPVHCLLPYCSLHLHLKVSENPYTSGIIASRDTAPSIIVASGNIGSELSDSDISMFVSSDAGNTWRQIFEEEHSILYLDQGGVLVAMKHTSLPIRHLWLSFDEGRSWSKYSFTSIPLFVDGVLGEPGEETLIMTVFGHFSHRSEWQLVKVDYKSIFDRRCAEEDYRPWQLHSQGEACIMGAKRIYKKRKSERKCMQGKYAGAMESEPCVCTEADFDCDYGYERHSNGQCLPAFWFNPSSLSKDCSLGQSYLNSTGYRKVVSNNCTDGVREQYTAKPQKCP” as the sequence, how does the “soluble on expression in E. coli” value read?
Answer: soluble

Question: For “MDLKQYITIVPDFPKPGIMFKDITTLMDNGPAYKYATDQIVQYAREKQIEIVVGPEARGFIIGCPVAYALGVGFAPVRKEGKLPREVVRVEYGLEYGTDVLTMHKDAIKPGQRVLITDDLLATGGTMRATIDLVEQLGGVVAGLAFLIELTELGGRKKLEGYDILTLMQF”, which “soluble on expression in E. coli” value is on record?
Answer: soluble

Question: For “MGSDKIHHHHHHMALKKICLENFTVFDKMEIEFCDGVNVLIGENGTGKTHIMKLLYAACQSAHASKKVISFPQKIVQVFKPDHANISRLLSRKAGNGSAKVHVISGNNTLKTSFNLKTKNWDAEVVGAQAWEKQLSNLTSTFIPAKEILSNSKNLVNAINVGNVDFDDTYKDIISVASVDINRGPNNVQKEKYLQILQDITDGKVSYENEEFYLLPGNQAKLEFQLVAEGMRKIALLWQLIKNGTLEQGTVLFWDEPEANINPKHIPALVEVLLNLQGDGVQIFIATHDYVLAKYLEIRMADANKIRFHSLYKKEGRVEVESNHNFKDLVNNSIAEAYNKLLDEVFEQTTKG”, which “soluble on expression in E. coli” value is on record?
Answer: not soluble

Question: Which “soluble on expression in E. coli” value does the source give for “MGSDKIHHHHHHMAEIEQALASPQLIAEKVLKLPSKVLELDRKLADPQFDTKDLLALIEQDPLLSVEVLKLCNSPAFKRGEREVTSLQQALVQLGREQLRRFVTSSLVREMLDIKPIYFRRFGAEIWRHSMQVAFLASELSEEDRDTAFLLGLLHDVGKLAIFKMLLDAFVQAEPGEQPNSWLFRQVMTAKSLTLSALLAKHWQLPSTFETELDKLAHVHTRPNEGIAAVVWRANVISEISMLQQASKLPADMLSNLLALVGLEQAQFDELHEKLQQF” here?
Answer: not soluble

Question: Which “soluble on expression in E. coli” value does the source give for “MGSDKIHHHHHHMNFISRVTKKNTYMKKAVIYSRVSTDEQAQLGYSLRDQERCLRLFCEKNDLEVVHHYQDDHSAKDFNRPQFQQFLRDVKSKRIKVDYFVCLKQDRFSRDTRLALNSVHDLEKLGVTVKYVENNLDLSIAENIIPYLLNFGIAELENKRLSERTKKGMRQAKREGRWVGTPPRGYKSIPDSTGKKILTPNQYSTLIIEAFTEFAQGNHSTESLRKVLYARGLKVSENQFPNILKNPIYCGKIRIDEWKEEKEEIVIGIHEPLISVELFEKVQRILNGTSTPNKPHKKLDPELPLRPFLKCSCGSNLTGSRSRSRNGNYHYYYHCQNGCSVRFPAKVANKKFETFLSMFSFSEDVILLYKEVLKDEFSKQVKERLELSAADAALKLKTQNLLDNADEKYIANELDNTTYQRVKEKYQKILDTITNKELDSKVVKSEFEKYLKGVTLLDSLDVKYKEGTIEFKNALLGSIFMGKLEFSENEYRTTQINSVVENLLLNFNELASYKKEKATTNSGFLQQAPPLGLEPRTP” here?
Answer: not soluble

Question: For “MGSDKIHHHHHHMELKKLDEGLFWPDYKNSIVNFSNSILELFDEKPLHRPFRFPKRVLENVRKVIVMVIDGLSFEIFSDTIHDDDVQVFPCSAVFPTTTAAALPSLYSALTPLEHGFLGYILYLREVGSLVNMIEMSPPGLPRDSVLRFHDFKFTTIFQRLQSKVKSFFLIPRYLLGTGFSRIMSQGSEQIGFSSFGDMIERTLEVLEKHDRTLVFIYWPTLDSIAHKNGVGREYIRELRWIYRILKSELLRRLKQDTLFFLVSDHGQISTPQDNEIWWNFSSEVMRFLDRPPAGEQRMMFLYTKKKRALIEYLKEKYGDFAVFLDTKDVVQLFGTGRKHPEFFSRVGDAVLITRETFSFNYRYTGKEESLSGRHGSLSYQELVVPLVVYRRW”, which “soluble on expression in E. coli” value is on record?
Answer: not soluble

Reference: the DeepSol protein solubility set
